For one substance, SPR signal response results are on record in PMC6534540.

The test has as its target N-term biotinylated candidalysin (Candida albicans). The test can be described thus: SPR; Biacore T100; N-term biotinylated candidalysin captured (up to 1000 RU) on neutravidin coupled to a CM5 chip, free sites blocked with PEG-biotin; EGFR domains injected at 250, 500, 1000 and 2000 nM at 10 µL/min; HBS-EP buffer (10 mM HEPES pH 7.4, 150 mM NaCl, 3 mM EDTA, 0.005% Surfactant P20); 25 °C; neutravidin-only reference cell. For orientation: In SPR one partner is held on a chip, and binding of the other changes the refractive index at the surface.

A value given as a limit tells only on which side of the number the result lay.

N-term biotinylated candidalysin (Candida albicans), sequence (Q07730 62-92): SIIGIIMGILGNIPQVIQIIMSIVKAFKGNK

“EGFR transmembrane portion (domain or fragment)” returned an SPR signal response of less than 50 RU.
